Experimental data taken from the DeepSol protein solubility set.

Experiment: soluble on expression in E. coli; label from the status in PepcDB or PDB records

Row | Sequence | soluble on expression in E. coli
1 | MFKILRKERLAPGINLFEIESPRIAKHAKPGQFVMIRLHEKGERIPLTIADVDISKGSITIVAQEVGKTTRELGTYEAGDYILDVLGPLGKPSHIDYFGTVVMIGGGVGVAEIYPVAKAMKEKGNYVISILGFRTKDLVFWEDKLRSVSDEVIVTTNDGSYGMKGFTTHALQKLIEEGRKIDLVHAVGPAIMMKAVAELTKPYGIKTVASLNPIMVDGTGMCGACRVTVGGEVKFACVDGPEFDAHLVDWDQLMNRLAYYRDLEKISLEKWERERRMV | not soluble
2 | MGSDKIHHHHHHAEDDRMTPLSADSGDTADELIPIHISLTGDNDYHSSSFNDASTRSHSPLIAEWVGVKAFSPTRTGEQPDYEGPRIASMELTEDTLPRVSTRATVPAGVYFRLIVFRKSGNNYVFQSVADYASNGTGTPVLERGKLLTRSGTIRVVGYSFNTTADLGDMPSTYAYNSSTVSIPDMSKDFMTFDSGDITNVNSLSHNLPVSFSQKLCKLTITISPTGFPSNTITNCTGVYVKQGGNSTSWKIGPSTNVVAANTNNTAAFSPNTTLNTTIRMVPFAGARTITVHFNTLTVGGRTVNNNTEITSTQSVQLKEGKSYTLKIQFKKGPGINVPASNINLTQNGCTENDKTILSKLRWAEGNLNSQSNYNLTWASSTTDYGYYYIWKNVYVSSGYTGYGAVDPCTRLDESIYGSGWRTPTRSEFISLSRCSNKQLVKYNGIQGMWFMNSSTGLFLPAAGYRDGDKGSGTTATAYTNGTGSYYWSSDLNGNSAYGLYILKNDVFVDANGNRKSGVSVRCVHNL | not soluble
3 | MIFVGNFIQDEKGKGLRIGFVHYRPFDETVGMNLPEETIRQMGALVDEIPEPEQREGKIPVMYYNPETNTVYYEYEDKPLSLEEEIKYLKELNAELIYQLMMKGAL | not soluble
4 | MSLSQEMIKKWLDEEGFLRMEVPDENARFHYVVNYPEDHVIDIIQPAGKDDMILIACATSVSPEHQAGIRALSMEKRTEFIWKVRFTLNRFGVDFQLDHPENVLNSYLVTDEIFFDGLSKDRLISSIKNVFRAKLQVMWMIQERFGEERPEHDSMYVEGHHHHHH | soluble
5 | GMHHQRKTHVDNNIAAVELAKAYRLLNHGPTVLVSARSQGIDNVMAAAWCCALDFAPPKLTVVLDKMTKTREFIEQSGMFVIQVPTVAQLQLTHRVGSQSLADDANKLLNCGVELFEMAGHDLPFVAGCSAWLACKLIPEPNNQLQYDLFIAEVIGAWADTQVFNHGHWHFDTAPADKRSLHYIAGGQFYAIGESFNAD | soluble
6 | MTRGRVIQVMGPVVDVKFENGHLPAIYNALKIQHKARNENEVDIDLTLEVALHLGDDTVRTIAMASTDGLIRGMEVIDTGAPISVPVGQVTLGRVFNVLGEPIDLEGDIPADARRDPIHRPAPKFEELATEVEILETGIKVVDLLAPYIKGGKIGLFGGAGVGKTVLIQELIHNIAQEHGGISVFAGVGERTREGNDLYHEMKDSGVISKTAMVFGQMNEPPGARMRVALTGLTMAEYFRDEQGQDGLLFIDNIFRFTQAGSEVSALLGRMPSAIGYQPTLATEMGQLQERITSTAKGSITSIQAIYVPADDYTDPAPATTFSHLDATTNLERKLAEMGIYPAVDPLVSTSRALAPEIVGEEHYQVARKVQQTLERYKELQDIIAILGMDELSDEDKLVVHRARRIQFFLSQNFHVAEQFTGQPGSYVPVKETVRGFKEILEGKYDHLPEDRFRLVGRIEEVVEKAKAMGVEV | soluble
7 | MLNDVFILTQIKEGNIKAFETLFRQYYTPLRLYAASITGVPDVAEEIVEELFYVFWKDREKLEIFHSVKNYLYRSVRNRSIQYCEHQDVKRRYQDAILSVPVNIASPDPQEQIEYKELQQIINRTLEKLPERRLHIFRLHHTEGKKYSEIASLLSLSVKTVEKEMTRALRTLRKEIENYIQIS | not soluble
8 | MGSDKIHHHHHHMELNHLVTGKIALNQYVHRLEQKDVSFYVHYWGAMTNHYNTLLHKHSFYEICYVVRGEGYYLEGDRTYPLREQTIFLSKPEHLHQIKSETGLFLFYVAFELSEDQSSAEWIKVMEEVKQSPFITMQLKDGEPPGLLWKTLMLQAAQPVNAFDKEILSHLSHALILSLIQTFLPYAQRPKQKQPIHTSSALLTEVKLHIKDNLSQPLKLTDVASHFHISGRHLSRLFAAELGVSYSEFVQNEKINKAAELLKSTNLSIKEIAEEIGFSVHYFTRVFSAKIGSSPGLFRSLYKDSKMTAFQINKPFQKIEQAKPHE | not soluble
9 | MGSDKIHHHHHHMEDIVEALKLAVTNLPEDVALALKNAYEREDYEIAKYNLEIMLRAVKTSKYYYVPLCQDTGTPIFFVETDGTWNVKEIYETIAEAVKRATDEIPLRPNAICLLSGKVVGNVPEIHIEPGKRNRISILIKGGGSENCSALFPLTPGDWFEGVKKKIIDHIRSCGGKPCPPIIVGIGIASPAERAITLAKKSLFRKIGERHEKLGWLEEEILEEINFLDIGPMGLGGKTTALDVKIEVGERHPASFIVGIAIQCWAHRRAFIEEKEDGEVVIWQ | not soluble
10 | SNAMSEFIMNNLEQTARRWLEERGVTVEKIAELVYYLQSKYHPDLTMEECIENVNRVISKREVQNAILTGIQLDKLAEDGRLDEPLQSIIRRDEGLYGVDEILALSIVNVYGSIGFTNYGYIDKQKPGILQYLNDKSTGKCNTFLDDIVGAIAAAASSRLAHRAANAE | soluble
11 | MSLKLTVVGLGYIGLPTSIMFAKHGVDVLGVDINQQTIDKLQSGQISIEEPGLQEVYEEVLSSGKLKVSTTPEASDVFIIAVPTPNNDDQYRSCDISLVMRALDSILPFLEKGNTIIVESTIAPKTMDDFVKPVIENLGFTIGEDICLVHCPERVLPGKILEELVHNNRIIGGVTKACIEAGKYVYRTFVQGEMIETDARTAEMSKLMENTYRDVNIALANELTKICNNLNINVLDVIEMANKHPRVNIHQPGPGVGGHCLAVDPYFIIAKDPENAKLIQTGREINNSMPAYVVDTTKQIIKALSGNKVTVFGLTYKGDVDDIRESPAFDIYELLNQEPDIEVCAYDPHVELDFVEHDMSHAVKDASLVLILSDHSEFKNLSDSHFDKMKHKVIFDTKNVVKSSFEDVSYYNYGNIFNFIDKEGHHHHHH | soluble
12 | MAHHHHHHMVRPEYSSPPEFFYNEEEAKKYVRNSRIRDIQSQMTERAMELLLLPDSPCLLLDIGCGSGISGMTLNELDHFWIGIDISIHMLRLQNEAHLGGDMLLADMGKLMRFQPCIFDGVVSISALQWLCNWDKKDESPVSRISTFFKWLYNCLKRGARAVFQFYPDSPEQIKTLTNFAMKAGFGGGVVVDFPNSAKSKKYYLCLWAGSSLVATMPTALNDEEENIISHERRKFNKKTKKQIKKNKEWILKKKDQRRMKGLDVKRDSKYTGRKRKGRF | not soluble
13 | MSALDCPAGTVLFRAGQDCPGFLRLDEGSIRVTLTAANGREVVLYRVRPGDVCLQTFACLTEGRSYSAEGVAETRVRGHLMSHADFRTALARDEAFRTEVMQAVARRFADFEHLVEDVALTGFDTRLARVLLRLAKGDTVAATHEALAAETASGRAFVSRRLAEFARQGLVELARGRVTLCDRSGLERIAAEER | not soluble
14 | MKTNPAVDSARLGLLLNELRLPAIKVMWPQFAERADKEGWPAARFLAAIIEHELAERDRRRIERHLAEARLLPGKTLDTFEFEAVPMISKAQVMAITAGDSWLEKGANLLLFGPPGGGKSHLASAIGLALIETGWRVMFTRTTDLVQKLQVARRELGLEAAINRLDRFHLLILDDLAYVTKDQAETSVLFELISARYERRSLLITANQPFGEWGKVFPDPSNARYPCCAAALEHHHHHH | not soluble
15 | SGIVPQLQNIVSTVNLGCKLDLKTIALRARNAEYNPKRFAAVIMRIREPRTTALIFSSGKMVCTGAKSEEQSRLAARKYARVVQKLGFPAKFLDFKIQNMVGSCDVKFPIRLEGLVLTHQQFSSYEPELFPGLIYRMIKPRIVLLIFVSGKVVLTGAKVRAEIYEAFENIYPILKGFRKTT | soluble
16 | KQKKMQAMIVTSRPDRVIRMIHHKLHRGVTIINDAEGTYNHEHKAILVTIITRAEFNDFKYIMKKTDKNAFVSVADNVNIIGRFVEED | not soluble
17 | MKLAELSKEEIQELSMVEVAYLVMKETKEPFNYQDLLKKVAELKGMSEEQMLDRIGYLYTDLNIDGRFVTLGDNRWGLRSWYPLEQVEEEITGPTKKKAKAKAEEEVDELDENIEVFDDEFEDLEDELDELAESEDSDEEDEEFDEGDDIDELDDEFEESDDDL | not soluble
18 | TFFTATDGNHGRGVAWTANKLGQKSVVLMPKGSSEFRLNKIKGEGADASITDLNYDDAVRLANDYAEADDHGVMVQDTAWDGYEEIPAWIMQGYGTMAQEAIEQLKEYGVDRPTHVFVQAGVGSLAGAVQGYVASIYDECPITVVVEADEADCYYKSAEAGDGKPRFVGGDMPTIMAGLACGEPNTIGFEVLKNHAAAFVSAPDWVSAKGMRTLGNPLNGDEKVISGESGAVTTGLLVAAMEREDLADLRKDLKLDENSRILLISTEGDT | not soluble
19 | MSVQDTKAVEFSMGHIRSSSVSLVAEATSNTNSEDKLSKVQLYEDLCRYEDTLSKLVESVDRFKPNLDIAKDLIRTDEALFENVKLLAEYDNIYRNLQKIDKDSEELDSKTRKILEILNECHDELKALPMLEQVEFEKNTILQQRSKINSTELLDYATKLSKFTKIPPTFDKGAVGPNNFIWPAEDALRRGMLAMASLHSKELTRIPGEEVEETEVPTVPPSQSEEQKGQMAKKEGTPKTDSFIFDGTAKEVGDEADNTKDKEKEENNDDALDLDLDLFDPDDF | soluble
20 | MGSDKIHHHHHHMSENIRALSRGLNVLEFLSETGGATRQATVAHFGLSRPTIYRLLGTLEKSGLISLGDDGVYRPTIATRALKEGLTDDVWALWAAEPILLELQKEVVWTSEITTFDAYSCTMLKRDTTHSLNPYHINLLDFDDNHRSMLTSACGLAYLAFCPQQQRAQILEHLGHFGDRTQSDSQRPDSQRGAGAHTRNLINKVISDGYAVEQRNSYPLIAAIAVPIRYDNRVLACLSIVWLPRAVKLQDGITQFLPALKRAQSFIEQKLLDDASIEYDTNFTAKYVHHGQQHELI | not soluble
21 | MSLKYAWIDEQCRHYPLSALCEVLAVSINGYRAWKRGGTVQRKRLTDAQLLTLIRTIHAEVKGAYGSPRMTEEIRARGFPASKARVERLMSKNGIRARHKRRYRVTTDSKHKLPVAPNLLNRDFTPDAPNQVFSSDITYIWTDEGWLYLAVVLDLFNREVVGWSIKPRMTADLVTDALMMAWFRRKPAPGALHHSDRGSQYASHEFQRKLADYGMHCSMSRKGNCWDNAPTESFFNSLKNERVHATHYRTHREAAADLFEYIEVFYSRSRRHSSLGFVPPTQFLQDWLTAQQVKDAVAEGHHHHHH | not soluble
22 | NKYDWFEFFLNCGVDVSNCQRYTINFDREQLTEDMMPDINNSMLRTLGLREGDIVRVMKHLDKKFGRENIAS | soluble
23 | MHHHHHHSSGRENLYFQGGSLLELQKKYHLKGAIGQGSYGVVRVAIENQTRAIRAIKIMNKNKIRQINPKDVERIKTEVRLMKKLHHPNIARLYEVYEDEQYICLVMELCHGGHLLDKLNVFIDDSTGKCAMDVVKTQICPCPECNEEAINGSIHGFRESLDFVQREKLISNIMRQIFSALHYLHNQGICHRDIKPENFLFSTNKSFEIKLVDFGLSKEFYKLNNGEYYGMTTKAGTPYFVAPEVLNTTNESYGPKCDAWSAGVLLHLLLMGAVPFPGVNDADTISQVLNKKLCFENPNYNVLSPLARDLLSNLLNRNVDERFDAMRALQHPWISQFSDKIYKMS | soluble
